Numbering of substitutions follows the chain as printed. Names and notes keep the numbering of the source.
T1: recombinant human CEACAM5 (human, UniProt P06731 35-685, limits assumed)
T1 construct: Immobilised by amine coupling on a CM5 chip
T1 sequence (looked up): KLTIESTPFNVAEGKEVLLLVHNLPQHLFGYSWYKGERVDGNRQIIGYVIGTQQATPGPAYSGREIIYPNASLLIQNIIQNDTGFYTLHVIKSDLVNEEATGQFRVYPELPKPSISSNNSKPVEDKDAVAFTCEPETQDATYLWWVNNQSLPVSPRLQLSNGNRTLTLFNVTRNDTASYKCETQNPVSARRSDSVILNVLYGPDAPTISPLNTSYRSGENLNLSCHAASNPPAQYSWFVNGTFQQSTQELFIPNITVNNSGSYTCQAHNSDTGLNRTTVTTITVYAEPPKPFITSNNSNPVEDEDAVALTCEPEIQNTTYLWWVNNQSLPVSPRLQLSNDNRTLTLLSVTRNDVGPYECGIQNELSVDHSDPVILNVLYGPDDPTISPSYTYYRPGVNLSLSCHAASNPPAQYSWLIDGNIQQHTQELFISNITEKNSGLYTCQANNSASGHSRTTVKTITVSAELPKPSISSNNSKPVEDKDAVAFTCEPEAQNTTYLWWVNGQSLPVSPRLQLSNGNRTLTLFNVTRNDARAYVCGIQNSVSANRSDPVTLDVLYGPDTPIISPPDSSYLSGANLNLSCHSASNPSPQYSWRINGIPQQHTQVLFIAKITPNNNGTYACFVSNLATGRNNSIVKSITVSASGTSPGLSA

B1: T028501806 (VHH)
VHH: EVQLVESGGGVVQPGGSLRLSCAASGFTFRSFGMSWVRQAPGEGPEWVSSISGSGSDTLYADSVKGRFTISRDNSKNTLYLQMNSLRPEDTALYYCTIGGSLSRSSQGTLVTVSS
notes: K43E vs precursor T028501805; also called HSA006A06(K43E, K83R)
B2: T028501813 (VHH)
VHH: B1 VHH with E43K, K76E
notes: K75E vs precursor T028501805; also called HSA006A06(K75E, K83R)
B3: T028501814 (VHH)
VHH: B1 VHH with E43K, K76Q
notes: K75Q vs precursor T028501805; also called HSA006A06(K75Q, K83R)
B4: T028501808 (VHH)
VHH: B1 VHH with E43H
notes: K43H vs precursor T028501805; also called HSA006A06(K43H, K83R)
B5: T028501807 (VHH)
VHH: B1 VHH with E43Q
notes: K43Q vs precursor T028501805; also called HSA006A06(K43Q, K83R)
B6: T028501810 (VHH)
VHH: B1 VHH with E43K, K65E
notes: K64E vs precursor T028501805; also called HSA006A06(K64E,K83R)
B7: T028501815 (VHH)
VHH: B1 VHH with E43K, K76R
notes: K75R vs precursor T028501805; also called HSA006A06(K75R, K83R)
B8: T028501809 (VHH)
VHH: B1 VHH with E43A
notes: K43A vs precursor T028501805; also called HSA006A06(K43A, K83R)
B9: T028501811 (VHH)
VHH: B1 VHH with E43K, K65Q
notes: K64Q vs precursor T028501805; also called HSA006A06(K64Q, K83R)
B10: T028501812 (VHH)
VHH: B1 VHH with E43K, K65H
notes: K64H vs precursor T028501805; also called HSA006A06(K64H, K83R)
B11: T028501790 (VHH)
VHH: EVQLVESGGGVVQPGGSLRLSCAASGLTFSTYTMGWFRQAPGEEREFVAAIIWSGSNTYYADSVKGRFTISRDNAKNTVYLQMNSLRPEDTALYYCAAQHFGPIGLTTRGYHYWGQGTLVTVSS
notes: K43E vs precursor T028501789; also called A0315007E07(K43E)
B12: T028501798 (VHH)
VHH: B11 VHH with E43K, K65H
notes: K64H vs precursor T028501789; also called A0315007E07(K64H)
B13: T028501804 (VHH)
VHH: B11 VHH with E43K, K76A
notes: K75A vs precursor T028501789; also called A0315007E07(K75A)
B14: T028501794 (VHH)
VHH: B11 VHH with E43A
notes: K43A (Kabat) vs precursor T028501789; also called A0315007E07(K43A)
B15: T028501796 (VHH)
VHH: B11 VHH with E43K, K65Q
notes: K64Q vs precursor T028501789; also called A0315007E07(K64Q)
B16: T028501797 (VHH)
VHH: B11 VHH with E43K, K65R
notes: K64R vs precursor T028501789; also called A0315007E07(K64R)
B17: T028501792 (VHH)
VHH: B11 VHH with E43R
notes: K43R vs precursor T028501789; also called A0315007E07(K43R)
B18: T028501799 (VHH)
VHH: B11 VHH with E43K, K65A
notes: K64A vs precursor T028501789; also called A0315007E07(K64A)
B19: T028501791 (VHH)
VHH: B11 VHH with E43Q
notes: K43Q vs precursor T028501789; also called A0315007E07(K43Q)
B20: T028501800 (VHH)
VHH: B11 VHH with E43K, K76E
notes: K75E vs precursor T028501789; also called A0315007E07(K75E)
B21: T028501802 (VHH)
VHH: B11 VHH with E43K, K76R
notes: K75R vs precursor T028501789; also called A0315007E07(K75R)
B22: T028501793 (VHH)
VHH: B11 VHH with E43H
notes: K43H vs precursor T028501789; also called A0315007E07(K43H)
B23: T028501801 (VHH)
VHH: B11 VHH with E43K, K76Q
notes: K75Q vs precursor T028501789; also called A0315007E07(K75Q)
B24: T028501795 (VHH)
VHH: B11 VHH with E43K, K65E
notes: K64E vs precursor T028501789; also called A0315007E07(K64E)
B25: T028501803 (VHH)
VHH: B11 VHH with E43K, K76H
notes: K75H vs precursor T028501789; also called A0315007E07(K75H)
B26: T028501817 (VHH)
VHH: EVQLVESGGGVVQPGGSLRLSCAASGHTFSEYALGWFRQAPGKEREFVAAINWGGGWTYYADSVKGRFTISRDNAKNTLYLQMNSLRPEDTALYYCAASSDYAGGNPTGYPYWGQGTLVTVSS
notes: also called A031500099; A0315024B02(L11V, A14P, D16G S23A, M43K, Q64K, K83R, G85E, G89L)
B27: T028501823 (VHH)
VHH: B26 VHH with K65E
notes: K64E vs precursor T028501817; also called A0315024B02(M43K, Q64E, K83R)
B28: T028501818 (VHH)
VHH: B26 VHH with K43E
notes: K43E vs precursor T028501817; also called A0315024B02(M43E, Q64K, K83R)
B29: T028501821 (VHH)
VHH: B26 VHH with K43H
notes: K43H vs precursor T028501817; also called A0315024B02(M43H, Q64K, K83R)
B30: T028501828 (VHH)
VHH: B26 VHH with K76E
notes: K75E vs precursor T028501817; 38 used; also called A0315024B02(M43K, Q64K, K75E, K83R)
B31: T028501827 (VHH)
VHH: B26 VHH with K65A
notes: K64A vs precursor T028501817; also called A0315024B02(M43K, Q64A, K83R)
B32: T028501829 (VHH)
VHH: B26 VHH with K76Q
notes: K75Q vs precursor T028501817; also called A0315024B02(M43K, Q64K, K75Q, K83R)
B33: T028501831 (VHH)
VHH: B26 VHH with K76H
notes: K75H vs precursor T028501817; also called A0315024B02(M43K, Q64K, K75H, K83R)
B34: T028501820 (VHH)
VHH: B26 VHH with K43R
notes: K43R vs precursor T028501817; also called A0315024B02(M43R, Q64K, K83R)
B35: T028501826 (VHH)
VHH: B26 VHH with K65H
notes: K64H vs precursor T028501817; also called A0315024B02(M43K, Q64H, K83R)
B36: T028501824 (VHH)
VHH: B26 VHH with K65Q
notes: also called A0315024B02(M43K, (K64K83R))
B37: T028501832 (VHH)
VHH: B26 VHH with K76A
notes: K75A vs precursor T028501817; also called A0315024B02(M43K, Q64K,K75A, K83R)
B38: T028501830 (VHH)
VHH: B26 VHH with K76R
notes: K75R vs precursor T028501817; also called A0315024B02(M43K, Q64K, K75R, K83R)
B39: T028501825 (VHH)
VHH: B26 VHH with K65R
notes: K64R vs precursor T028501817; also called A0315024B02(M43K, Q64R, K83R)
B40: T028501822 (VHH)
VHH: B26 VHH with K43A
notes: K43A vs precursor T028501817; also called A0315024B02(M43A, Q64K, K83R)
B41: T028501819 (VHH)
VHH: B26 VHH with K43Q
notes: K43Q vs precursor T028501817; also called A0315024B02(M43Q, Q64K, K83R)

What follows are binders tested against T2, human serum albumin (human, UniProt P02768 25-609) (assay: SPR Biacore 8K+, HSA amine-coupled on C1 chip, ISVD analyte, 1:1 fit).
T2 construct: Immobilised by amine coupling on a C1 chip; also called HSA
T2 sequence (P02768 25-609 limits assumed): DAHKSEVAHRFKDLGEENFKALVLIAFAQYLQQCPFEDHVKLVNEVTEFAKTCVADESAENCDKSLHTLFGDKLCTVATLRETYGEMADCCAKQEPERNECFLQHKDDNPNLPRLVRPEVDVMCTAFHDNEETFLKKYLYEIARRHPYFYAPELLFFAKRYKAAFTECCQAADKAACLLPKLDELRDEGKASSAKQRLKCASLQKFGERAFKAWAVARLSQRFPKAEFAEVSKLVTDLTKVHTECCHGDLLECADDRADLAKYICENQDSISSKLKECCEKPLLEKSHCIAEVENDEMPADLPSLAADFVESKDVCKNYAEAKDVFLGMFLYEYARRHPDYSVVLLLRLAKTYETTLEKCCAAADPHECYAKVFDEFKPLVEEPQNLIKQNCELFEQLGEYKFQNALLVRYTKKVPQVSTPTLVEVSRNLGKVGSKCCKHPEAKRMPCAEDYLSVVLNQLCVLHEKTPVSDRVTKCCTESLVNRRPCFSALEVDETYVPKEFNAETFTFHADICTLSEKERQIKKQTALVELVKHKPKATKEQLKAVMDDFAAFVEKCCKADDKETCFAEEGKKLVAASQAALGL

| Kd | koff | kon | Binder |
| --- | --- | --- | --- |
| 1.26 nM | 0.00108 s⁻¹ | 856000 M⁻¹ s⁻¹ | B1 |
| 1.98 nM | 0.00102 s⁻¹ | 514000 M⁻¹ s⁻¹ | B2 |
| 1.4 nM | 0.00114 s⁻¹ | 814000 M⁻¹ s⁻¹ | B3 |
| 1.4 nM | 0.00102 s⁻¹ | 728000 M⁻¹ s⁻¹ | B4 |
| 1.76 nM | 0.00119 s⁻¹ | 677000 M⁻¹ s⁻¹ | B5 |
| 1.93 nM | 0.00124 s⁻¹ | 644000 M⁻¹ s⁻¹ | B6 |
| 1.48 nM | 0.00127 s⁻¹ | 860000 M⁻¹ s⁻¹ | B7 |
| 1.13 nM | 0.000872 s⁻¹ | 769000 M⁻¹ s⁻¹ | B8 |
| 1.76 nM | 0.00103 s⁻¹ | 587000 M⁻¹ s⁻¹ | B9 |
| 1.74 nM | 0.00102 s⁻¹ | 590000 M⁻¹ s⁻¹ | B10 |

Each binder was assayed against T1, recombinant human CEACAM5 (assay: SPR Biacore 8K+, CEACAM5 amine-coupled on CM5, ISVD analyte, 1:1 fit).

| Kd | koff | kon | Binder |
| --- | --- | --- | --- |
| 1.71 nM | 0.00085 s⁻¹ | 498000 M⁻¹ s⁻¹ | B11 |
| 2.39 nM | 0.000962 s⁻¹ | 402000 M⁻¹ s⁻¹ | B12 |
| 1.56 nM | 0.000917 s⁻¹ | 586000 M⁻¹ s⁻¹ | B13 |
| 1.54 nM | 0.000865 s⁻¹ | 562000 M⁻¹ s⁻¹ | B14 |
| 2.24 nM | 0.000929 s⁻¹ | 415000 M⁻¹ s⁻¹ | B15 |
| 1.59 nM | 0.00107 s⁻¹ | 675000 M⁻¹ s⁻¹ | B16 |
| 1.23 nM | 0.00092 s⁻¹ | 747000 M⁻¹ s⁻¹ | B17 |
| 2.54 nM | 0.000976 s⁻¹ | 385000 M⁻¹ s⁻¹ | B18 |
| 1.45 nM | 0.00087 s⁻¹ | 602000 M⁻¹ s⁻¹ | B19 |
| 1.72 nM | 0.000911 s⁻¹ | 529000 M⁻¹ s⁻¹ | B20 |
| 1.39 nM | 0.000897 s⁻¹ | 643000 M⁻¹ s⁻¹ | B21 |
| 1.22 nM | 0.000877 s⁻¹ | 719000 M⁻¹ s⁻¹ | B22 |
| 1.58 nM | 0.000913 s⁻¹ | 579000 M⁻¹ s⁻¹ | B23 |
| 3.55 nM | 0.000914 s⁻¹ | 258000 M⁻¹ s⁻¹ | B24 |
| 1.46 nM | 0.00084 s⁻¹ | 574000 M⁻¹ s⁻¹ | B25 |
| 8.9 nM | 0.00212 s⁻¹ | 238000 M⁻¹ s⁻¹ | B26 |

| Kd | koff | kon | Binder |
| --- | --- | --- | --- |
| 18.2 nM | 0.00282 s⁻¹ | 155000 M⁻¹ s⁻¹ | B27 |
| 10.5 nM | 0.00226 s⁻¹ | 215000 M⁻¹ s⁻¹ | B28 |
| 9.11 nM | 0.00193 s⁻¹ | 212000 M⁻¹ s⁻¹ | B29 |
| 7.51 nM | 0.00203 s⁻¹ | 270000 M⁻¹ s⁻¹ | B30 |
| 7.95 nM | 0.00235 s⁻¹ | 295000 M⁻¹ s⁻¹ | B31 |
| 7.14 nM | 0.00208 s⁻¹ | 291000 M⁻¹ s⁻¹ | B32 |
| 7.8 nM | 0.00209 s⁻¹ | 268000 M⁻¹ s⁻¹ | B33 |
| 7.13 nM | 0.00172 s⁻¹ | 242000 M⁻¹ s⁻¹ | B34 |
| 8.42 nM | 0.00232 s⁻¹ | 275000 M⁻¹ s⁻¹ | B35 |
| 12.2 nM | 0.00249 s⁻¹ | 205000 M⁻¹ s⁻¹ | B36 |
| 6.34 nM | 0.00204 s⁻¹ | 322000 M⁻¹ s⁻¹ | B37 |
| 6.01 nM | 0.00207 s⁻¹ | 344000 M⁻¹ s⁻¹ | B38 |
| 7.27 nM | 0.00241 s⁻¹ | 331000 M⁻¹ s⁻¹ | B39 |
| 8.77 nM | 0.00198 s⁻¹ | 225000 M⁻¹ s⁻¹ | B40 |
| 8.74 nM | 0.00199 s⁻¹ | 228000 M⁻¹ s⁻¹ | B41 |
